Assay results as given in PMC12102759 (2025).

B1: NOTCH4 peptide 1606-1621 (Neurogenic locus notch homolog protein 4), 16-mer library wild type / NSP9 (ORF1ab Nsp9, residues 4141-4253) (parent complex)
chain 1: QGAWLGAPEPWEPLLD
chain 2: NNELSPVALRQMSCAAGTTQTACTDDNALAYYNTTKGGRFVLALLSDLQDLKWARFPKSDGTGTIYTELEPPCRFVTDTPKGPKVKYLYFIKGLNNLNRGMVLGSLAATVRLQ
B2: AZIN2 peptide 1-16 (Antizyme inhibitor 2), 16-mer library wild type / NSP3 ADRP (ORF1ab Nsp3b ADRP, residues 1023-1192) (parent complex)
chain 1: MAGYLSESDFVMVEEG
chain 2: not shown

Variants of: B1
Assay: bait immobilised on MaxiSorp plates (10 µg), library pre-cleared on GST, 2 h binding at 4 °C, five washes; one round per day, days 1-4; value from days 2 and 3

Row | Variant | screen value
1 | chain 1 HGAWLGAPEPWEPLLD | 0.000824 average fractional NGS count over selection days 2 and 3 (reads of this peptide / all reads for the bait, averaged over …
2 | chain 1 IGAWLGAPEPWEPLLD | 0.000162 average fractional NGS count over selection days 2 and 3 (reads of this peptide / all reads for the bait, averaged over …
3 | chain 1 EGAWLGAPEPWEPLLD | 0.00488 average fractional NGS count over selection days 2 and 3 (reads of this peptide / all reads for the bait, averaged over …
4 | chain 1 TGAWLGAPEPWEPLLD | 0.000204 average fractional NGS count over selection days 2 and 3 (reads of this peptide / all reads for the bait, averaged over …
5 | chain 1 LGAWLGAPEPWEPLLD | 0.000598 average fractional NGS count over selection days 2 and 3 (reads of this peptide / all reads for the bait, averaged over …
6 | chain 1 QGAWLGAPEPWEILLD | 0.00354 average fractional NGS count over selection days 2 and 3 (reads of this peptide / all reads for the bait, averaged over …
7 | chain 1 QGAWLGAPEPWEKLLD | 0.00839 average fractional NGS count over selection days 2 and 3 (reads of this peptide / all reads for the bait, averaged over …
8 | chain 1 QGAWLGAPEPWEYLLD | 0.000242 average fractional NGS count over selection days 2 and 3 (reads of this peptide / all reads for the bait, averaged over …
9 | chain 1 QGAWLGAPEPWEGLLD | 0.00615 average fractional NGS count over selection days 2 and 3 (reads of this peptide / all reads for the bait, averaged over …
10 | chain 1 QGAWLGAPEPWEELLD | 0.000762 average fractional NGS count over selection days 2 and 3 (reads of this peptide / all reads for the bait, averaged over …
11 | chain 1 QGAWLGAPEPWEPLID | 0.0135 average fractional NGS count over selection days 2 and 3 (reads of this peptide / all reads for the bait, averaged over …
12 | chain 1 QGAWLGAPEPWEPLPD | 0.000417 average fractional NGS count over selection days 2 and 3 (reads of this peptide / all reads for the bait, averaged over …
13 | chain 1 QGAWLGAPENWEPLLD | 0.000425 average fractional NGS count over selection days 2 and 3 (reads of this peptide / all reads for the bait, averaged over …
14 | chain 1 QGAWLGAPELWEPLLD | 0.00033 average fractional NGS count over selection days 2 and 3 (reads of this peptide / all reads for the bait, averaged over …
15 | chain 1 QGAWLGAPESWEPLLD | 0.000591 average fractional NGS count over selection days 2 and 3 (reads of this peptide / all reads for the bait, averaged over …
16 | chain 1 QGAYLGAPEPWEPLLD | 0.000452 average fractional NGS count over selection days 2 and 3 (reads of this peptide / all reads for the bait, averaged over …
17 | chain 1 QGAWLGAEEPWEPLLD | 0.000231 average fractional NGS count over selection days 2 and 3 (reads of this peptide / all reads for the bait, averaged over …

Row | Variant | screen value
18 | chain 1 QGAWLGAPKPWEPLLD | 0.000266 average fractional NGS count over selection days 2 and 3 (reads of this peptide / all reads for the bait, averaged over …
19 | chain 1 QGAWLGAPIPWEPLLD | 0.00116 average fractional NGS count over selection days 2 and 3 (reads of this peptide / all reads for the bait, averaged over …
20 | chain 1 QGAWLGAPGPWEPLLD | 0.00198 average fractional NGS count over selection days 2 and 3 (reads of this peptide / all reads for the bait, averaged over …
21 | chain 1 QGAWLGAPWPWEPLLD | 0.00272 average fractional NGS count over selection days 2 and 3 (reads of this peptide / all reads for the bait, averaged over …
22 | chain 1 QGAWIGAPEPWEPLLD | 0.000857 average fractional NGS count over selection days 2 and 3 (reads of this peptide / all reads for the bait, averaged over …
23 | chain 1 QGAWLAAPEPWEPLLD | 9.6e-05 average fractional NGS count over selection days 2 and 3 (reads of this peptide / all reads for the bait, averaged over …
24 | chain 1 QGAWLGAPEPWEPMLD | 0.00305 average fractional NGS count over selection days 2 and 3 (reads of this peptide / all reads for the bait, averaged over …
25 | chain 1 QGAWLGAPEPWEPALD | 0.00317 average fractional NGS count over selection days 2 and 3 (reads of this peptide / all reads for the bait, averaged over …
26 | chain 1 QGFWLGAPEPWEPLLD | 0.00137 average fractional NGS count over selection days 2 and 3 (reads of this peptide / all reads for the bait, averaged over …
27 | chain 1 QGAWLGGPEPWEPLLD | 0.00198 average fractional NGS count over selection days 2 and 3 (reads of this peptide / all reads for the bait, averaged over …
28 | chain 1 QGAWLGRPEPWEPLLD | 0.000186 average fractional NGS count over selection days 2 and 3 (reads of this peptide / all reads for the bait, averaged over …
29 | chain 1 QGAWLGAPEPLEPLLD | 0.0119 average fractional NGS count over selection days 2 and 3 (reads of this peptide / all reads for the bait, averaged over …
30 | chain 1 QGAWLGAPEPSEPLLD | 0.000466 average fractional NGS count over selection days 2 and 3 (reads of this peptide / all reads for the bait, averaged over …
31 | chain 1 QGAWLGAPEPDEPLLD | 0.000384 average fractional NGS count over selection days 2 and 3 (reads of this peptide / all reads for the bait, averaged over …
32 | chain 1 QGAWLGAPEPWYPLLD | 0.00153 average fractional NGS count over selection days 2 and 3 (reads of this peptide / all reads for the bait, averaged over …
33 | chain 1 QGAWLGAPEPWGPLLD | 0.00333 average fractional NGS count over selection days 2 and 3 (reads of this peptide / all reads for the bait, averaged over …
34 | chain 1 QGAWLGAPEPWQPLLD | 0.00173 average fractional NGS count over selection days 2 and 3 (reads of this peptide / all reads for the bait, averaged over …

Variants of: B2
Assay: as above

Row | Variant | screen value
35 | chain 1 E15H | 0.00102 average fractional NGS count over selection days 2 and 3 (reads of this peptide / all reads for the bait, averaged over …
36 | chain 1 E15D | 9.82e-05 average fractional NGS count over selection days 2 and 3 (reads of this peptide / all reads for the bait, averaged over …
37 | chain 1 D9G | 0.000412 average fractional NGS count over selection days 2 and 3 (reads of this peptide / all reads for the bait, averaged over …
38 | chain 1 D9K | 0.00156 average fractional NGS count over selection days 2 and 3 (reads of this peptide / all reads for the bait, averaged over …
39 | chain 1 V11H | 7.39e-05 average fractional NGS count over selection days 2 and 3 (reads of this peptide / all reads for the bait, averaged over …
40 | chain 1 V11E | 0.000156 average fractional NGS count over selection days 2 and 3 (reads of this peptide / all reads for the bait, averaged over …
41 | chain 1 V11T | 0.000107 average fractional NGS count over selection days 2 and 3 (reads of this peptide / all reads for the bait, averaged over …
42 | chain 1 M12H | 0.000156 average fractional NGS count over selection days 2 and 3 (reads of this peptide / all reads for the bait, averaged over …
43 | chain 1 M12S | 0.000927 average fractional NGS count over selection days 2 and 3 (reads of this peptide / all reads for the bait, averaged over …
44 | chain 1 M12A | 0.00221 average fractional NGS count over selection days 2 and 3 (reads of this peptide / all reads for the bait, averaged over …
45 | chain 1 M12N | 0.00321 average fractional NGS count over selection days 2 and 3 (reads of this peptide / all reads for the bait, averaged over …
46 | chain 1 G16H | 0.000328 average fractional NGS count over selection days 2 and 3 (reads of this peptide / all reads for the bait, averaged over …
47 | chain 1 G16S | 0.000137 average fractional NGS count over selection days 2 and 3 (reads of this peptide / all reads for the bait, averaged over …
48 | chain 1 G16E | 0.000344 average fractional NGS count over selection days 2 and 3 (reads of this peptide / all reads for the bait, averaged over …
49 | chain 1 G16V | 0.000213 average fractional NGS count over selection days 2 and 3 (reads of this peptide / all reads for the bait, averaged over …
50 | chain 1 G16A | 0.00182 average fractional NGS count over selection days 2 and 3 (reads of this peptide / all reads for the bait, averaged over …
51 | chain 1 G16F | 0.000171 average fractional NGS count over selection days 2 and 3 (reads of this peptide / all reads for the bait, averaged over …
52 | chain 1 S8T | 0.00377 average fractional NGS count over selection days 2 and 3 (reads of this peptide / all reads for the bait, averaged over …
53 | chain 1 G3D | 0.00677 average fractional NGS count over selection days 2 and 3 (reads of this peptide / all reads for the bait, averaged over …
54 | chain 1 G3H | 8.37e-05 average fractional NGS count over selection days 2 and 3 (reads of this peptide / all reads for the bait, averaged over …
55 | chain 1 G3Q | 0.000537 average fractional NGS count over selection days 2 and 3 (reads of this peptide / all reads for the bait, averaged over …
56 | chain 1 G3K | 0.00086 average fractional NGS count over selection days 2 and 3 (reads of this peptide / all reads for the bait, averaged over …
57 | chain 1 G3M | 0.000375 average fractional NGS count over selection days 2 and 3 (reads of this peptide / all reads for the bait, averaged over …
58 | chain 1 E14P | 0.0011 average fractional NGS count over selection days 2 and 3 (reads of this peptide / all reads for the bait, averaged over …
59 | chain 1 E14Q | 0.00039 average fractional NGS count over selection days 2 and 3 (reads of this peptide / all reads for the bait, averaged over …
60 | chain 1 E14S | 0.000258 average fractional NGS count over selection days 2 and 3 (reads of this peptide / all reads for the bait, averaged over …
61 | chain 1 E14N | 0.000346 average fractional NGS count over selection days 2 and 3 (reads of this peptide / all reads for the bait, averaged over …
62 | chain 1 V13M | 0.000618 average fractional NGS count over selection days 2 and 3 (reads of this peptide / all reads for the bait, averaged over …
63 | chain 1 V13H | 0.00368 average fractional NGS count over selection days 2 and 3 (reads of this peptide / all reads for the bait, averaged over …
64 | chain 1 E7K | 0.00106 average fractional NGS count over selection days 2 and 3 (reads of this peptide / all reads for the bait, averaged over …
